Experimental findings from patent US8216581 (University of Pennsylvania, dated 2012) are described below.

B1: P4-2a (peptide)
peptide: CIVPWFFHC
notes: From the Cys-7-mer-Cys constrained phage library; also called C7C constrained peptide
B2: P3-4 (peptide)
peptide: CPSLAHRWC
notes: as for B1
B3: P4-12 (peptide)
peptide: DLRLNSLIVPWS
notes: From the 12-mer linear phage library; also called 12-mer linear peptide
B4: P4-7 (peptide)
peptide: FPLNTIIHSAVY
notes: as for B3
B5: H10L122 (Fab, V domains shown)
VH: QVQLVQSGAEVKKPGASVKVSCKASGYSFSNYYMHWVRQAPGEGLEWMGIINPKGGTTSYAQKFQGRVTIAADKFTNSAYMEPSSLRYEDTAVYFCARAKFSWSPDIWGQGTVVTVSS
VL: QAVVTQEPSLTVSPGGTVTLTCDSSTGAVTSGHYPYWLQQKPGQAPRTLIYDTHNKHSWTPGRFSGSLLGGKAALTLSGAQPEDEAEYYCSLSYSAVWVFGGGTKLTVL
notes: Soluble Fab
B6: H38L75 (Fab, V domains shown)
VH: QVQLVESGGGVVQPGRSLRLSCAASGFTFSNYAMHWVRQAPGKGLEWVAVISYDGSNKYYADSVKGRFTISRDNSKNTLYLQMNSLRPEDTAVYYCARGGVGAFDYWGQGTLVTVSS
VL: EIVLTQSPATLSLSPGERATLSCRASQSVRSFLAWYQQKPGQAPRLLIYDTSKRPTGIPDRFSGSGSGTDFTLTISSLEPEDFAVYYCQQRSSWPLTFGGGTTVEIK
notes: Soluble Fab
B7: H38L74 (Fab, V domains shown)
VH: B6 VH
VL: EIVLTQSPATLSLSPGERATLSCRASQSVSSYLAWYQQKPGQAPRLLIYDASNRATGIPARFSGSGSGTDFTLTISSLEPEDFAVYYCQQRSNWPTFGGGTKVEIK
notes: Soluble Fab
B8: H37L92 (Fab, V domains shown)
VH: B6 VH with G102A
VL: QSALTQPASVSGSPGQSITISCTGTSSDVGGYKYVSWYQQHPGKAPKLIIYDVTNRPSGVSKRFSGSKSGNTASLTISGLQAEDEADYYCSSYTSRSTPVFGGGTKVTVL
notes: Soluble Fab
B9: H38L76 (Fab, V domains shown)
VH: B6 VH
VL: not shown
notes: Soluble Fab
B10: H36L76 (Fab, V domains shown)
VH: B6 VH with N31S, G102A
VL: not shown
notes: Soluble Fab, clone B
B11: H29L104 (Fab, V domains shown)
VH: EVQLVESGGGLVKPGGSLRLSCAASGFTFSSYSMNWVRQAPGKGLEWVSSISSSSSYIYYADSVKGRFTISRDNAKNSLYLQMNSLRAEDTAVYYCARDHPNYYDSSGLFDYWGQGTLVTVSS
VL: SSELTQDPAVSVALGQTVRITCQGDSLRSYYASWYQQKPGQAPVLVIYGKNYRPSGIPDRFSGSSSGNTASLTITGAQAEDEADYYCNSRDSSGNHWVFGGGTKLTVL
notes: Soluble Fab
B12: H44L4 (Fab, V domains shown)
VH: QVQLVESGGGVVQPGRSLRLSCAASGFTFSYYAMVWVRQAPGKGLEWVAVISNDGRNKYYADSVKGRFTISRDNAKNTLYLQMNSLRVEDTAVYYCARLGYWGPGTLVTVSS
VL: DIQMTQSPSSLSVSVGDRVTITCRASQTITMYLNWYQQKPGKAPKLLIYAGSSLPSGVPPRFSGSGSGTDFTLTISSLQPEDFATYYCQQSYSTLTFGGGTKVEMK
notes: their results are put here; also called anti-GPIIb/IIIa platelet autoantibody; ITP patient A antibody H44L4
B13: H44L126 (Fab, V domains shown)
VH: B12 VH
VL: DIQMTQSPSSLSASVGDRVIVTCRASQSISSYVSWYQQKPGKAPKLLISTTSTLQSGVPSRFSGSASGTDFTLTISSLQPEDFATYYCQQSSSRPLTFGQGTKVEIK
notes: Soluble Fab
B14: H44L127 (Fab, V domains shown)
VH: B12 VH
VL: DIQMTQSPSSLSASVGDRVTITCRASQTITSFLNWYQQKRGKAPKLLIYGASTLQSGVPSRFSGSGSGTDFTLTISSLQPEDVATYYCQQTYSQPLTFGQGTKVEIK
notes: Soluble Fab
B15: H44L128 (Fab, V domains shown)
VH: B12 VH
VL: DIQMTQSPSSLSAFVGDRVTITCRASQSITSYLNWYQQKPGKAPNLLIYAASSLQSGVPSRFSGSGSGTEFTLTISSLQPEDYATYYCQQRYSYILTFGQGTKVEIK
notes: Soluble Fab

Substitutions are numbered along the chain they refer to. Names may count otherwise.

The target in the first assay is T1, H44L4 full-length IgG.
T1 construct: also called autoanti-GPIIb/IIIa
Briefly: peptide ELISA (scheme of FIG. 8).
Regarding CIVEHFFHC [P73-2], the binding result is “binds”.
The same measure, in the same setting: the value for B1 was “binds”.
Still for that read-out and setting: with CVVPWFFHC [P74-4] the entry was “binds”; with IDVWWLSTQGVP [P124-1], “binds”; with CQHKLPSNC [P73-7], “binds”.
On the same count and under the same terms, the value for B2 was “binds”.
For the molecule CETWWRLSC [P73-6], the binding result is listed as “binds”.
Still for that read-out and setting: with FPLMSLINPWRT [P124-2] the entry was “binds”.
As to LPFNTLIVPGRT [P124-11], the binding result is “binds”.
The same measure, in the same setting: with CTWLPYPYC [P74-9] the entry was “binds”.
Take CIIPFMFQC [P73-9]: the binding result is recorded as “binds”.
For CLVPWMFHC [P73-11], the binding result is recorded as “binds”.
Still for that read-out and setting: with CVTSKPHTC [P74-5] the entry was “binds”.
The same measure, in the same setting: the value for CTHWWRPAC [P73-10] was “binds”; that for LPFDTIIKPWPV [P123-11] was “binds”; that for KHSMPINAILPP [P124-8] was “binds”.
Same read-out and setting: the value for CLIPWMFNC [P74-3] was “binds”.
Regarding WSLHTLGLPFVF [P123-10], the binding result is “binds”.
On the same count and under the same terms, with FLPISTLITPSG [P123-8] the entry was “binds”; with B3, “binds”; with CVVQWMFQC [P74-1a], “binds”.
On the same count and under the same terms, with CVVSWMFQC [P74-8] the entry was “binds”; with B4, “binds”.

For a further assay, the target named is T2, GPIa/IIa on a stable K562 cell line (UniProt P17301 30-1181; P05556 21-798, limits assumed).
T2 construct: whole, on cells; also called K562 cell line expressing GPIa/IIa
Briefly: flow cytometry on K562 cells expressing GPIa/IIa.
For the molecule B5, the binding result was “no binding”.
The same measure, in the same setting: the value for B6 was “no binding”; that for B7 was “no binding”; that for B8 was “no binding”.
B9: the binding result is given as “no binding”.
On the same count and under the same terms, the value for B10 was “no binding”; that for B11 was “no binding”.

For the next assay, the target named is T3, vitronectin receptor (αvβ3) on CHO cells (UniProt P06756 31-1048; P05106 27-788, limits assumed).
T3 construct: whole, on cells
T3 sequence (P06756 31-1048 limits assumed, chain 1 of 2): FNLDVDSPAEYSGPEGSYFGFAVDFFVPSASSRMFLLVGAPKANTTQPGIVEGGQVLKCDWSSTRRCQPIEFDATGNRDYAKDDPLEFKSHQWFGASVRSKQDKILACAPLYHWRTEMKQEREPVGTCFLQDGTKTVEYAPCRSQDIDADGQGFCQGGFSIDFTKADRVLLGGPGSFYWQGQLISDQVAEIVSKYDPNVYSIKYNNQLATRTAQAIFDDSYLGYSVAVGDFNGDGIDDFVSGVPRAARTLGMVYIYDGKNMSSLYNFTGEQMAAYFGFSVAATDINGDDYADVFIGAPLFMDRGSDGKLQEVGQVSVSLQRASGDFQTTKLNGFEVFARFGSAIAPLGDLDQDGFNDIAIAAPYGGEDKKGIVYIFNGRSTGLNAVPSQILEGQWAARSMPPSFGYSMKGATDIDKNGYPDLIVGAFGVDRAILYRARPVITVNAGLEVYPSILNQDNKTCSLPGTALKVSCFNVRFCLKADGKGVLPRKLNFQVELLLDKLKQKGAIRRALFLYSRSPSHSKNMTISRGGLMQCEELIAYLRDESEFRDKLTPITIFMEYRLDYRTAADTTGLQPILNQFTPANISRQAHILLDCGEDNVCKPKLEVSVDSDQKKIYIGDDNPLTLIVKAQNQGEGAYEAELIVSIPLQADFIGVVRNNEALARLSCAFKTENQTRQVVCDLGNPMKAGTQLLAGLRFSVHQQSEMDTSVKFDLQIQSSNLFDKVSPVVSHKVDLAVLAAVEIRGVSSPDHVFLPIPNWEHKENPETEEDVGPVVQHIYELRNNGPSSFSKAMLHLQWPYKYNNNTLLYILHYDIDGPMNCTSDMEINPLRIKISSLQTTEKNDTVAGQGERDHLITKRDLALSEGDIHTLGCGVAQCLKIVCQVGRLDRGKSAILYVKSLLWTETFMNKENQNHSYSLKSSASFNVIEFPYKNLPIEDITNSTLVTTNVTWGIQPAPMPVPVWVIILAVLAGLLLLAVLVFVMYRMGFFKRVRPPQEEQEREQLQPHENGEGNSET
T3 sequence (P05106 27-788 limits assumed, chain 2 of 2): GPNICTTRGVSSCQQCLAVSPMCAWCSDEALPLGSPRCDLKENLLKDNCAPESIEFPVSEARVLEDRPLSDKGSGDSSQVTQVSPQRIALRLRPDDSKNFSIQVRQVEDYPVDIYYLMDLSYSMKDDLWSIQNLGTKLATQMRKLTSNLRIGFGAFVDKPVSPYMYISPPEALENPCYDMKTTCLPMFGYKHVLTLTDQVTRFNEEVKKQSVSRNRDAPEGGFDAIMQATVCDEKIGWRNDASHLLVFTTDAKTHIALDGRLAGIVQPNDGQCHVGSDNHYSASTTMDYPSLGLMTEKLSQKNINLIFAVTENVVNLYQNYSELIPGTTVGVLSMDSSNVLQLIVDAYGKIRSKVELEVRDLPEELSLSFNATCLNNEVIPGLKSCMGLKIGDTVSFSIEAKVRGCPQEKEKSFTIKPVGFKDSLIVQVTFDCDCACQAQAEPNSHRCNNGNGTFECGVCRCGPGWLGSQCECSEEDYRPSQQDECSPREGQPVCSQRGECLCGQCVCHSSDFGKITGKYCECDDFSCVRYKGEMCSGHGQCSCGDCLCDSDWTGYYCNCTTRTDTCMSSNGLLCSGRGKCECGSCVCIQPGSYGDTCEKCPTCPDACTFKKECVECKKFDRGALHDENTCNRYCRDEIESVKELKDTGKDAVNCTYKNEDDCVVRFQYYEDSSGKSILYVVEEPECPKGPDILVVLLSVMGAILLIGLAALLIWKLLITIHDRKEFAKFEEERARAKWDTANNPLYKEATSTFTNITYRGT
The assay can be described thus: flow cytometry on transfected CHO cells. A general note: Flow cytometry measures light scatter and fluorescence of single cells or particles in a stream.
Regarding B12, the binding result was “no binding”.

The next assay has as its target T4, immobilized GPIa/IIa (UniProt P17301 30-1181; P05556 21-798).
T4 construct: Antigen of the PakAuto ELISA kit
The assay can be described thus: ELISA (PakAuto kit), soluble Fab.
Description: Antibodies to platelet GPIIb/IIIa, GPIb/IX, or GPIa/IIa were measured by using a PakAuto kit (GTI, Brookfield, Wis.); those to cardiolipin were assessed with a QuantaLite kit (Inova, San Diego, Calif.).
Consider B12, for which the binding result was “no binding”.

Another assay deals with T5, GPIIb/IIIa on intact human platelets (human, UniProt P08514 32-1039; P05106 27-788).
T5 construct: whole, on cells; also called platelet GPIIb/IIIa; αIIbβ3
The assay can be described thus: flow cytometry on intact platelets.
With B13, the binding result is reported as “no binding”.
With B14, the binding result is “no binding”.
Same read-out and setting: with B15 the entry was “no binding”.

The next assay addresses T5, GPIIb/IIIa on intact human platelets. Briefly: immunoprecipitation from biotinylated platelets; agrees with ELISA and Glanzmann platelet flow cytometry.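 Further: precipitated biotin-labelled platelet membrane proteins visualized with biotinylated horseradish peroxidase-avidin complexes, scored for polypeptides behaving like GPIIb/IIIa.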 Background: In an ELISA, binding on a coated surface is turned into a signal by an enzyme label.
Excerpt: Precipitated, biotinylated platelet membrane proteins were detected with biotinylated horseradish peroxidase-avidin complexes (ABC Staining Kit, Pierce).
Take B5: the binding result is given as “no binding”.
With B6, the binding result is listed as “no binding”.
The same measure, in the same setting: with B7 the entry was “no binding”.
The same measure, in the same setting: with B8 the entry was “no binding”; with B9, “no binding”; with B10, “no binding”.
On the same count and under the same terms, the value for B11 was “no binding”.
